Measurements: patent US7674604

Legend:
[1] = molecular target: LFA-1 mutant K287C/K294C (αL K287C/K294C with β2) on 293T or K562 transfectants (human) (UniProt P05107); assay: flow cytometry, K562, normalized to TS2/4
[2] = molecular target: LFA-1 mutant L289C/K294C (αL L289C/K294C with β2) on 293T or K562 transfectants (human) (UniProt P05107); assay: flow cytometry, K562, normalized to TS2/4
[3] = molecular target: LFA-1 single cysteine substitution mutant L289C on 293T transfectants (human) (UniProt P05107); assay: flow cytometry, 293T, normalized to TS2/4
[4] = molecular target: LFA-1 mutant K287C/K294C (αL K287C/K294C with β2) on 293T or K562 transfectants (human) (UniProt P05107); assay: flow cytometry, 293T, normalized to TS2/4
[5] = molecular target: LFA-1 single cysteine substitution mutant K287C on 293T transfectants (human) (UniProt P05107); assay: flow cytometry, 293T, normalized to TS2/4
[6] = molecular target: LFA-1 mutant L289C/K294C (αL L289C/K294C with β2) on 293T or K562 transfectants (human) (UniProt P05107); assay: flow cytometry, 293T, normalized to TS2/4
[7] = molecular target: LFA-1 single cysteine substitution mutant K294C on 293T transfectants (human) (UniProt P05107); assay: flow cytometry, 293T, normalized to TS2/4
[8] = molecular target: isolated K287C/K294C αL I-domain (V130-A338) expressed on K562 cells by the PDGF receptor transmembrane domain (human) (UniProt P20701); assay: flow cytometry on K562 transfectants
isolated K287C/K294C αL I-domain (V130-A338) expressed on K562 cells by the PDGF receptor transmembrane domain (human), sequence (P20701 155-363 K312C/K319C limits assumed): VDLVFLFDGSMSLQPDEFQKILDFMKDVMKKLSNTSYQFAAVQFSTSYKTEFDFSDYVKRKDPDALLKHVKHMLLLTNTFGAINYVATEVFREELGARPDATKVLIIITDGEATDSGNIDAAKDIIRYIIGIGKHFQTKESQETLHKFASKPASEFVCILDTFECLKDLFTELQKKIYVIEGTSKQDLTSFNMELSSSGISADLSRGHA

[9] = molecular target: LFA-1 mutant K287C/K294C (αL K287C/K294C with β2) on 293T or K562 transfectants (human) (UniProt P05107); assay: flow cytometry on transfectants
[10] = molecular target: wild-type LFA-1 (αL/β2 complex) expressed on 293T or K562 transfectants (human) (UniProt P05107); assay: inhibition of adhesion of K562 transfectants (+CBRLFA-1/2) to immobilized ICAM-1
[11] = molecular target: LFA-1 mutant K287C/K294C (αL K287C/K294C with β2) on 293T or K562 transfectants (human) (UniProt P05107); assay: inhibition of adhesion of K562 transfectants to immobilized ICAM-1
[12] = molecular target: recombinant ICAM-1 Fc chimera immobilized on the BIAcore sensor chip (UniProt P05362); assay: BIAcore; Kon calculated by Koff/KD; Table 6 kinetic study; Kon calculated as Koff/KD from steady-state data, very weak binding
recombinant ICAM-1 Fc chimera immobilized on the BIAcore sensor chip, sequence (P05362 28-480 limits assumed, stated change not applied): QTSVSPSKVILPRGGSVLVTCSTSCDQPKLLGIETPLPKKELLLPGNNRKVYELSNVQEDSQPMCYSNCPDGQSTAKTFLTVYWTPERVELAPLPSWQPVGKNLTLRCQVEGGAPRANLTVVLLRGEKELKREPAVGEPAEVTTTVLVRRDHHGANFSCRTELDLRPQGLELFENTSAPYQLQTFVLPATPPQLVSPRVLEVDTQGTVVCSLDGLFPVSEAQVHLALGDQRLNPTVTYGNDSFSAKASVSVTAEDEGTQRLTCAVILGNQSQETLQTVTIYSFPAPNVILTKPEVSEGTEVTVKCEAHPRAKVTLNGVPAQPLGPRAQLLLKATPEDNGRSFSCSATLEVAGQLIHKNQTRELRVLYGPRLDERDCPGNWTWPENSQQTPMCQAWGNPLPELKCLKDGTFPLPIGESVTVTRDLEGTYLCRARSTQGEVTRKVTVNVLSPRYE

[13] = molecular target: recombinant ICAM-1 Fc chimera immobilized on the BIAcore sensor chip (UniProt P05362); assay: BIAcore; Scatchard plot at steady state; Table 6 kinetic study; KD from Scatchard plots at steady state, millimolar affinity
[14] = molecular target: recombinant ICAM-1 Fc chimera immobilized on the BIAcore sensor chip (UniProt P05362); assay: BIAcore; fit of dissociation phase, 1:1 model; Table 6 kinetic study; Koff from a 1:1 fit of the dissociation phase

## monoclonal antibody CBRLFA-1/1
[1]
  % wild-type binding (% of wild-type): 55.5
[2]
  % wild-type binding (% of wild-type): 118
[3]
  % wild-type binding (% of wild-type): 93.3
[4]
  % wild-type binding (% of wild-type): 43.6
[5]
  % wild-type binding (% of wild-type): 86.1
[6]
  % wild-type binding (% of wild-type): 95.9
[7]
  % wild-type binding (% of wild-type): 89.4
[8]
  % of binding to the wild-type I-domain (% of wild-type I-domain): 80
[9]
  % of wild-type binding (% of wild-type): 40 to 50

## monoclonal antibody YFC51
[10]
  % inhibition: 98.4%
[1]
  % wild-type binding (% of wild-type): 101
[2]
  % wild-type binding (% of wild-type): 111
[4]
  % wild-type binding (% of wild-type): 103
[6]
  % wild-type binding (% of wild-type): 95.1
[11]
  % inhibition: 0.08%

## recombinant soluble wild-type αL I-domain (G128 to Y307), made in E. coli (from UniProt P20701 153-332) (receptor)
[12]
  kon: 2220 M⁻¹ s⁻¹
[13]
  Kd: 1350 µM
[14]
  koff: 3 s⁻¹
